Data from patent US20230076643A1.

Target: T1, CD6 (UniProt P30203)
T1 sequence (looked up): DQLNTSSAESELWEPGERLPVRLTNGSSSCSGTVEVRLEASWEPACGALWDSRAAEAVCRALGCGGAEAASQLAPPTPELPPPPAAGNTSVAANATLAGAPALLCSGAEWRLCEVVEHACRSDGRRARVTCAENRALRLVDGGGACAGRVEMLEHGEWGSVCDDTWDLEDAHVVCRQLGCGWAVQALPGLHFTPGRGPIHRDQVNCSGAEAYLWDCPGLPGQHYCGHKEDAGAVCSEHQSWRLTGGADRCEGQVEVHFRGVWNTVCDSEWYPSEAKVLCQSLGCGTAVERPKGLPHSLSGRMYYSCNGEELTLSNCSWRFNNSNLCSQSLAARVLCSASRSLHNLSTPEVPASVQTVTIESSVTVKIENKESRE
Test: binding assay of FIG. 7 on CAR Tregs; method not described

Kd: 50 nM
B1: CD6 CAR (representative CD6 CAR, expressed on Treg) (protein, part only; not given: hinge, transmembrane and signalling domains, part only)
scFv, part: EVQLVESGGGLVKPGGSLKLSCAASGFKFSRYAMSWVRQAPGKRLEWVATISSGGSYIYYPDSVKGRFTISRDNVKNTLYLQMSSLRSEDTAMYYCARRDYDLDYFDSWGQGTLVTVSSGSTSGGGSGGGSGGGGSSDIQMTQSPSSLSASVGDRVTITCKASRDIRSYLTWYQQKPGKAPKTLIYYATSLADGVPSRFSGSGSGQDYSLTISSLESDDTATYYCLQHGESPFTFGSGTKLEIKRA
